The target of the assay is T1, long isoform of the mouse leptin receptor (Mus musculus, UniProt P48356).
T1 construct: expressed in transfected cells; host or cells: PC12 (rat pheochromocytoma), transient electroporation with pMET7-mLRlo
T1 sequence (P48356 22-1162): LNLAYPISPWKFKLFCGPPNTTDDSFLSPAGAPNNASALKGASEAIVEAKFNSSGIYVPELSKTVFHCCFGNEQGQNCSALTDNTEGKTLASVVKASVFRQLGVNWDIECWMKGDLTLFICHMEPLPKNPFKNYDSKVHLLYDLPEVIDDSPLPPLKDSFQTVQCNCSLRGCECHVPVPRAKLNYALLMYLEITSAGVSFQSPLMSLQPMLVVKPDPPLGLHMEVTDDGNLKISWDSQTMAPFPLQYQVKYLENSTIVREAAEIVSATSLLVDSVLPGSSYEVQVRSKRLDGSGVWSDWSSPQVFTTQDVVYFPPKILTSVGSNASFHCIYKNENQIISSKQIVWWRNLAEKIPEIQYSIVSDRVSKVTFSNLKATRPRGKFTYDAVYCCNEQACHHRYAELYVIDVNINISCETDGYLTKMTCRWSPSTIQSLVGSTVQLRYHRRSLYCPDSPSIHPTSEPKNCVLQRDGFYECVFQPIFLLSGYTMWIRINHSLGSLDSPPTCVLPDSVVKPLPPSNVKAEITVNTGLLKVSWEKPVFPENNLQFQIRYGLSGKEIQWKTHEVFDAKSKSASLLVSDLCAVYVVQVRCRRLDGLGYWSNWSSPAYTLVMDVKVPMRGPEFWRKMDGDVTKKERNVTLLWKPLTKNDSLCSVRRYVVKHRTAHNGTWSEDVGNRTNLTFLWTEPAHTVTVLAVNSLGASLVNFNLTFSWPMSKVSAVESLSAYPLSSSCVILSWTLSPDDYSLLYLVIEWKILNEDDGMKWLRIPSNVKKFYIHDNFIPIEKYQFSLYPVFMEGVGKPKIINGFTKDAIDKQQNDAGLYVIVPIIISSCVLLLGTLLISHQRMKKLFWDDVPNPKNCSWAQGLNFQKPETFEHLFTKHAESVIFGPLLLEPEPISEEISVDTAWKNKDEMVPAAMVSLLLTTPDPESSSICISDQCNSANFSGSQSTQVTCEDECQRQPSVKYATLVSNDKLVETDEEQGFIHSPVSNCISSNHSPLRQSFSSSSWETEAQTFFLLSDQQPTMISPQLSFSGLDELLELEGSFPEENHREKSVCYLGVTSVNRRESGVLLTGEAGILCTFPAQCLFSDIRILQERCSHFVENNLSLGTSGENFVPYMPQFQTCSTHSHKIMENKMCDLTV
The assay can be described thus: rNPY promoter luciferase reporter in PC12 cells transiently transfected with pMET7-mLRlo. It counts as cell-based. On the procedure: FIG. 1A. Leptin-induced NPY promoter activity in transiently transfected PC12 cells. PC12 cells were co-transfected with control vector (columns 1 and 2), pMET7-mLRsh (columns 3 and 4) or pMET7-mLRlo (columns 5 and 6) together with the pGL3-rNPYluc reporter. The different subcultures were mock stimulated (growth medium alone) or treated with mouse leptin (100 ng/ml) for 72 hours. Luciferase activity in cell lysates is shown; data represent the mean±standard deviation values of assays performed in triplicate.
FIG. 1B. Forskolin co-stimulation on leptin-induced pGL3-rNPY luciferase activity. PC12 cells were transiently co-transfected with pMET7-mLRlo and the pGL3-rNPYluc reporter. […]
In order to study leptin receptor signaling in a neuro-endocrine-related cell type, we transiently transfected PC12 cells with expression vectors for the long or the short isoform of the mouse leptin receptor (pMET7-mLRlo and pMET7-mLRsh respectively) and monitored gene induction by leptin. […]
Luciferase activity was measured in transfected cells by chemiluminescence. […] 70 μl of luciferase substrate buffer (20 mM Tricine; 1.07 mM (MgCO3)4Mg(OH)25H2O; 2.67 mM MgSO4; 0.1 mM EDTA; 33.3 mM DTT; 270 μM Coenzyme A (lithium salt); 470 μM Luciferin (Duchefa); 530 μM ATP, final pH 7.8) was added to 100 μl of cell lysate and measured for 5 seconds by TopCount.NXT Chemiluminescence Counter (Packard).

B1: leptin: mouse leptin (R&D Systems), ob gene product, used on PC12 cells at 100 ng/ml (protein)
chain: VPIQKVQDDTKTLIKTIVTRINDISHTQSVSAKQRVTGLDFIPGLHPILSLSKMDQTLAVYQQVLTSLPSQNVLQIANDLENLRDLLHLLAFSKSCSLPQTSGLQKPESLDGVLEASLYSTEVVALSRLQGSLQDILQQLDVSPEC
For B1, the “luciferase activity, rNPY reporter” value (PC12 cells co-transfected with pGL3-rNPYluc and pMET7-mLRlo, leptin alone) is reported as “moderate stimulation”. For the setting “leptin plus forskolin, rNPY luciferase”, the optimal co-stimulatory concentration was 100 ng/mL.

(Values after patent US7291458B2, “Leptin-mediated gene-induction” (Vlaams Interuniversitair Instituut Voor Biotechnologie VZW, priority 1998, dated 2007).)
